In paper PMC7043342:

Tests used:
[1] = molecular target: SPD_1495 (33-442 AA), recombinant, GST tag removed (S. pneumoniae D39); test: SPR; SPD_1495 (30 ug/ml) fixed on a NanoGold-COOH sensor chip by capture coupling; ComE^D58E injected at 100, 200, 400, 800 and 1,600 nmol/liter in 0.01 M PBS; Open-SPR (Nicoya), 25°C; association and dissociation 300 s each; one-to-one diffusion-corrected model, TraceDrawer
[2] = molecular target: T1, SPD_1495 (Streptococcus pneumoniae D39) (UniProt A0A0H2ZL68); test: EMSA
T1 sequence: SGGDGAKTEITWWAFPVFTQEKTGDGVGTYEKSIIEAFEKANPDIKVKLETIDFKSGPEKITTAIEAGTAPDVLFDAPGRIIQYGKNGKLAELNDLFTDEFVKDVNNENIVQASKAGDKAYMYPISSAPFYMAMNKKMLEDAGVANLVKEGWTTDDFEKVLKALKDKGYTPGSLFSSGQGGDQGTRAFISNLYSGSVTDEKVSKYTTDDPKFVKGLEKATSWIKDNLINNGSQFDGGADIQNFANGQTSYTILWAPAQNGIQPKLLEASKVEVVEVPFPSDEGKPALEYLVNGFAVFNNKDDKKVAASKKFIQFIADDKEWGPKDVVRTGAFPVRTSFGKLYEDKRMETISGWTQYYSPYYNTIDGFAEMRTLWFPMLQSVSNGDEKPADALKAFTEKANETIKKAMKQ

Substance | Kd [1] | binding [2]
ComE^D58E, phosphomimetic mutant of the response regulator ComE (natural protein) | 1.55 µM | 
TACACATCTGCTTCTAAAATATTGTTAGAAAACGATTTGACTGTCCTGATCAATTTGTCATGTTCTTATTTCATTTTACTATATTTTTGGTTCGCGGGAAGTCTACTAAGATACTTAAAGATGCAGATAGTGAAAAAAGGTGTAGACATTACCGTAAAAAAGTGATATAATCGTAAGATGTTCAATGTATAGGTGTTAATCATGAGTAGACGTTTTAA (double strand) [Bio-cps (cps upstream promoter)] |  | no binding
